The values that follow come from PMC6417941.

In this experiment the target is Thermococcus kodakarensis RNA polymerase (Thermococcus kodakarensis).

B1: Spt4-Spt5 complex (complex)
chain 1: MAKERACRHCHYITTEDRCPVCGSRDLSDDWFDLVIVLDVESRIAKKLRESIPEAAKVPGKYAIRVR
chain 2: MAEGKIFTVSVTVGQETTTANLIYSKAKTYNLPLYAILSPSKVKGYIFIEAPNKSAVEEAIRGIRHAKRVLPGEIPFSEIEHFLEEKPAVSGFEPGDIVELIAGPFKGEKAKVVRVDESKDEIVVELVSSVVPIPVTVRGEYVRLISKRQKE
Regarding B1, the elongation rate on histone-bound (HTkB) templates, against no factor was found to be 1.5 fold.
